Experimental data: patent publication US20080292632A1 (US Dept. of Health and Human Services, published 2008)

Columns and labels:
[1] = molecular target: T1, IRTA2 extracellular domain-Fc fusion protein (human, UniProt Q96RD9 16-851); test: equilibrium ELISA (Friguet)
T1 construct: extracellular domain; also called IRTA2-Fc; IRTA2-HFc; not shown: human IgG1 hinge and Fc
T1 sequence (looked up): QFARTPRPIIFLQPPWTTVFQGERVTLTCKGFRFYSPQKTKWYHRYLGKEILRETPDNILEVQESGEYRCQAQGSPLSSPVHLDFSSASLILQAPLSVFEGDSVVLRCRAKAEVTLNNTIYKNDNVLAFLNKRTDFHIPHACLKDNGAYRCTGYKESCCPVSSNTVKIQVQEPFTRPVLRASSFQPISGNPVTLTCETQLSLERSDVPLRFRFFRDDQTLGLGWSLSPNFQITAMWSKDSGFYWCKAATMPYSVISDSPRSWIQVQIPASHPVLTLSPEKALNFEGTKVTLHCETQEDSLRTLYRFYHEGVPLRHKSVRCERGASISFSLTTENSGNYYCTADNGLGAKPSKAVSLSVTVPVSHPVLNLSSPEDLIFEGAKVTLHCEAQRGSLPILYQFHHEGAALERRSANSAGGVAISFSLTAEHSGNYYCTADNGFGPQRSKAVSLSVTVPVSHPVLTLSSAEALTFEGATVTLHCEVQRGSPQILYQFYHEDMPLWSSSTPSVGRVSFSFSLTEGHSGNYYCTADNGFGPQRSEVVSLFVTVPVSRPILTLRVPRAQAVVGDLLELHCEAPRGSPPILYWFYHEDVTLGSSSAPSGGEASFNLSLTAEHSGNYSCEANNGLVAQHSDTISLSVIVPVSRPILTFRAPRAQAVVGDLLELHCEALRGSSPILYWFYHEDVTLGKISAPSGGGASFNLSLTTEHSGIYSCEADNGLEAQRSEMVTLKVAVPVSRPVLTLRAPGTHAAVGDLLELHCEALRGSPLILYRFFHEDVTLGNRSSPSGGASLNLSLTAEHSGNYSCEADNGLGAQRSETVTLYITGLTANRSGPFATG
Experimental: ELISA. In a typical indirect ELISA for the screening of hybridomas, microtiter plates (MaxiSorp; Nalge Nunc, Rochester, N.Y.) were coated with 100 ng/50 μl/well of goat anti-human IgG in phosphate buffered saline (PBS) for 2 hours at room temperature. Next, 50 ng/100 μl/well of IRTA2-Fc in blocking buffer (25% DMEM, 5% FBS, 25 mM HEPES, 0.5% bovine serum albumin, 0.1% sodium azide in PBS) was added to each well and incubated for 2 hours at room temperature. After washing with PBS containing 0.05% Tween 20, 50 μl of the hybridoma supernatants were added and incubated for 2 hours at room temperature. After washing, the bound MAbs were detected by a 2-hour incubation with horseradish peroxidase (HRP)-labeled goat anti-mouse IgG (Jackson ImmunoResearch, Grove, Pa.) followed by tetramethylbenzidine (TMB) substrate kit (Pierce, Rockford, Ill.). In some experiments, other IRTA-Fc fusion proteins were used instead of IRTA2-Fc.
Affinity Determination. Affinities (dissociation constant, Kd) of the anti-IRTA2 MAbs to IRTA2-Fc were determined by ELISA as previously described (Friguet et al., J Immunol Methods 77:305-19, 1985). Briefly, each MAb was incubated with various concentrations of IRTA2-Fc at room temperature for 20 hours to reach equilibrium; then the amount of MAb that remains unbound at equilibrium was measured by the indirect ELISA as described above.

[2] = molecular target: T2, CD30 on transfected 293T cells (human, UniProt P28908 19-595); test: cell-ELISA, formalin-fixed cells
T2 construct: whole, on cells
T2 sequence (looked up): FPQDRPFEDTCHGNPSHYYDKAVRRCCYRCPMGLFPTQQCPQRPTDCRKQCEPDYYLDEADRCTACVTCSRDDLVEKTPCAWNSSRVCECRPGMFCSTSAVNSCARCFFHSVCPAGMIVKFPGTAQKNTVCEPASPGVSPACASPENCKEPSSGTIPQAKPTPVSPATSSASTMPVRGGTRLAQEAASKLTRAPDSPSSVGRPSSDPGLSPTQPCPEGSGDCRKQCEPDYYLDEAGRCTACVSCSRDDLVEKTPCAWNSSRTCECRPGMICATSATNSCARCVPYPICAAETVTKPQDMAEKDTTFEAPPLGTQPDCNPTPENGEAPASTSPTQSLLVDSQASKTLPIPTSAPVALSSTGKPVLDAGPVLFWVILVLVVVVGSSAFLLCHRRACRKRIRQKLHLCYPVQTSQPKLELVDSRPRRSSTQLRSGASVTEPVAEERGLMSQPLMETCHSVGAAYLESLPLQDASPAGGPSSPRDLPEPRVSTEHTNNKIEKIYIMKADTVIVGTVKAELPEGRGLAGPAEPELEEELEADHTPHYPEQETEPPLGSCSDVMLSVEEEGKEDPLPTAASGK
Experimental: Cell-ELISA. […] After overnight culture, the cells were fixed with 3.7% formalin in the culture medium at room temperature overnight. Incubation with a dilution of MAbs, secondary antibody and substrate was performed as described in the ELISA protocol except that 1% FBS in PBS was used for washing.

Kd [1]: 1.2 nM
binding result [2]: no binding (tested: ’0.2)
B1: F25 (antibody, IgG2a, V domains shown)
VH: EVQLQQSGPELVKPGTSVKMSCKASGYSFTGYFMNWMMQNHGKSLEWIGRINLYNGDTFYNQKFKDKATLTVDKSSNTVHMEFRSLASEDSAVYYCASSLYYFDYWGQGTTFTVSS
VL: DIVMTQSHKFMSTSVGDRVNITCKASQDVGTNVAWYQQKPGQSPKLLIYWASTRQTGVPDRFTGSGSGTDFTLTISNVQSEDLSDYFCQQYSSYPLTFGAGTKLELKR
notes: mouse hybridoma MAb, IgG2a, kappa; also called MAb F25; biotin-MAb F25
